# Source: patent publication US20240376207A1
# Where two headings read alike, the source gives them in different places.
# What was measured:
# Experiment in all cases: cell-based or functional assay
# [1] = molecular target: human PVRIG expressed on cells (human) (UniProt Q6DKI7)
# [2] = molecular target: human PVRIG expressed on cells (human) (UniProt Q6DKI7); remark: listed apart in the source
# [3] = molecular target: human PVRIG expressed on cells (human) (UniProt Q6DKI7); remark: listed apart in the source
# human PVRIG expressed on cells (human), sequence (Q6DKI7 41-326 limits assumed, form in doubt): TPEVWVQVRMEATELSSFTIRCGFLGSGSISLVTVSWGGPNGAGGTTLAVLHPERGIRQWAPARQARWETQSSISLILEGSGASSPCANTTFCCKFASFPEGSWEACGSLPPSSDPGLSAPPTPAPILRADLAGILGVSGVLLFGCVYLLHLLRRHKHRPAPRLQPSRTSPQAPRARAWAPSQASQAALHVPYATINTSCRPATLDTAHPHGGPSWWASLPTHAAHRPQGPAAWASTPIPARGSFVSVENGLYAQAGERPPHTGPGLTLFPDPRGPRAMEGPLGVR
substance,measurement,setting,value
IgG4 (control antibody),"MLR IFNγ (pg/mL), 4 nM antibody (control baseline)",[1],984 pg/mL
same,"MLR IFNγ (pg/mL), 20 nM antibody (control baseline)",[1],814 pg/mL
same,"MLR IFNγ (pg/mL), 100 nM antibody (control baseline)",[1],1310 pg/mL
same,"NK92 killing of K562, killing activity (%), 20 nM antibody (control baseline)",[1],22%
same,"NK92 killing of K562, killing activity (%), 100 nM antibody (control baseline)",[1],22%
same,"NK92 killing of K562, killing activity (%), 4 nM antibody (control baseline)",[2],11.2%
same,"NK92 killing of K562, killing activity (%), 20 nM antibody (control baseline)",[2],11.7%
same,"NK92 killing of K562, killing activity (%), 100 nM antibody (control baseline)",[2],9.2%
same,"MLR IFNγ (pg/mL), 20 nM antibody (control baseline)",[3],74 pg/mL
same,"MLR IFNγ (pg/mL), 100 nM antibody (control baseline)",[3],89 pg/mL
